Test results published in US20050282740A1 (BETH ISRAEL DEACONESS MEDICAL CENTER, published 2005).
Where no end group is shown, it is not given here. Fluorescein = N-terminal fluorescein label

Molecular target: T1, GST (UniProt P08515 1-218 = GST)
T1 construct: Control protein; also called control GST
Assay: fluorescence anisotropy

T1 sequence (P08515 whole entry): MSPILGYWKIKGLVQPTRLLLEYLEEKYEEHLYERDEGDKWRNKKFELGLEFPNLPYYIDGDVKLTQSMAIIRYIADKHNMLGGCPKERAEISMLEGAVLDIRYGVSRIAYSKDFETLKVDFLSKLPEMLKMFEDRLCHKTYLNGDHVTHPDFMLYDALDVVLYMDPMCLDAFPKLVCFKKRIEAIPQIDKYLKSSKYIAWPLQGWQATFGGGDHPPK

B1: EQPLTPVTDL (peptide)
peptide: Fluorescein-EQPLTPVTDL
notes: also called nonphosphorylated Cdc25 Peptide
- binding result: no binding
